Measured values reported in IntAct's records for PubMed 29039417.

B1: BBSome complex member BBS1 (Homo sapiens), Q8NFJ9 (parent)
chain: MAAASSSDSDACGAESNEANSKWLDAHYDPMANIHTFSACLALADLHGDGEYKLVVGDLGPGGQQPRLKVLKGPLVMTESPLPALPAAAATFLMEQHEPRTPALALASGPCVYVYKNLRPYFKFSLPQLPPNPLEQDLWNQAKEDRIDPLTLKEMLESIRETAEEPLSIQSLRFLQLELSEMEAFVNQHKSNSIKRQTVITTMTTLKKNLADEDAVSCLVLGTENKELLVLDPEAFTILAKMSLPSVPVFLEVSGQFDVEFRLAAACRNGNIYILRRDSKHPKYCIELSAQPVGLIRVHKVLVVGSTQDSLHGFTHKGKKLWTVQMPAAILTMNLLEQHSRGLQAVMAGLANGEVRIYRDKALLNVIHTPDAVTSLCFGRYGREDNTLIMTTRGGGLIIKILKRTAVFVEGGSEVGPPPAQAMKLNVPRKTRLYVDQTLREREAGTAMHRAFQTDLYLLRLRAARAYLQALESSLSPLSTTAREPLKLHAVVQGLGPTFKLTLHLQNTSTTRPVLGLLVCFLYNEALYSLPRAFFKVPLLVPGLNYPLETFVESLSNKGISDIIKVLVLREGQSAPLLSAHVNMPGSEGLAAA
partner: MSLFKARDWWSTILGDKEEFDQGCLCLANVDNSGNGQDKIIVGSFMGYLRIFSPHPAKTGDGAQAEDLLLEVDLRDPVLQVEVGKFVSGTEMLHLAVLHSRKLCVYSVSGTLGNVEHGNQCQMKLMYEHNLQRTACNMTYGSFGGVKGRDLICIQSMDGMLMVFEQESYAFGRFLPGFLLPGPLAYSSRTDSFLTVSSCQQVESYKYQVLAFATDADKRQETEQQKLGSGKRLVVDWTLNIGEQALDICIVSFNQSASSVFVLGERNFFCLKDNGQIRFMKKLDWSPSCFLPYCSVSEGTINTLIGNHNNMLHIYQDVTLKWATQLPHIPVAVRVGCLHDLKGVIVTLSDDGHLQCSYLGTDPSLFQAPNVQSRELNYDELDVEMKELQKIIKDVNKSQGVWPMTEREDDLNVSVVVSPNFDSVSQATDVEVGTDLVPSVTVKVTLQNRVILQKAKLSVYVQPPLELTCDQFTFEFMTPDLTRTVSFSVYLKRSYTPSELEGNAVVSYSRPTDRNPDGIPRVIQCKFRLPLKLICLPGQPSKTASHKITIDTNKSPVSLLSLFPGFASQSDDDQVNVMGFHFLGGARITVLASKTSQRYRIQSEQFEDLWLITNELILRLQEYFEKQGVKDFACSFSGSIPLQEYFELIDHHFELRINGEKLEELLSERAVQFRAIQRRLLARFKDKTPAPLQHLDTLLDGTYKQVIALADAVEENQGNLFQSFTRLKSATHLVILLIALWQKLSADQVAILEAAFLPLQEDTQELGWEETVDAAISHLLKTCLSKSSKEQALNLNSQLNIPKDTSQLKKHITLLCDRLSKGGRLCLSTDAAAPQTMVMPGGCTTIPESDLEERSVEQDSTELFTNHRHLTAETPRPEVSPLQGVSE

Variants of: B1
Settings: with pthb1_human BBS9, Q3SYG4

Row | Variant | effect of a mutation on the interaction
1 | L486K | disrupting interaction strength
2 | L486A | with no effect
3 | L486E | disrupting interaction strength
4 | K487A | with no effect
5 | K487E | with no effect
6 | K500A | with no effect
7 | K500E | with no effect
8 | L495K | with no effect
9 | L495A | with no effect
10 | L495E | with no effect
11 | A444K | with no effect
12 | A444E | with no effect
13 | R465A | with no effect
14 | R465K | with no effect
15 | R465E | with no effect
16 | E472K | with no effect
17 | E472A | with no effect
18 | P485E | with no effect
19 | P485A | with no effect
20 | P485K | with no effect
21 | H449K | with no effect
22 | H449A | with no effect
23 | H449E | with no effect
24 | L459A | with no effect
25 | L459K | with no effect
26 | L459S | disrupting interaction strength

Row | Variant | effect of a mutation on the interaction
27 | L459E | with no effect
28 | T502E | with no effect
29 | T502K | with no effect
30 | T502A | with no effect
31 | F452C | disrupting interaction strength
32 | F452E | with no effect
33 | F452K | with no effect
34 | F452A | with no effect
35 | R462A | with no effect
36 | R462K | with no effect
37 | R462E | with no effect
38 | S474E | with no effect
39 | S474A | with no effect
40 | S474K | with no effect
41 | R483K | with no effect
42 | R483E | with no effect
43 | R483A | with no effect
44 | S479E | with no effect
45 | S479K | with no effect
46 | S479A | with no effect
47 | S476E | with no effect
48 | S476A | with no effect
49 | S476K | with no effect
50 | R450A | with no effect
51 | R450K | with no effect
52 | R450E | with no effect

Row | Variant | effect of a mutation on the interaction
53 | G494A | with no effect
54 | G494K | with no effect
55 | G494E | with no effect
56 | V492E | with no effect
57 | V492A | with no effect
58 | V492K | with no effect
59 | L501E | disrupting interaction strength
60 | L501A | disrupting interaction strength
61 | L501K | disrupting interaction strength
62 | H489K | with no effect
63 | H489E | with no effect
64 | H489A | with no effect
65 | A470K | with no effect
66 | A470E | with no effect
67 | Q469A | with no effect
68 | Q469K | with no effect
69 | Q469E | with no effect
70 | Y467K | with no effect
71 | Y467E | with no effect
72 | Y467A | with no effect
73 | A466E | with no effect
74 | A466K | with no effect
75 | F499E | disrupting interaction strength
76 | F499K | with no effect
77 | F499A | with no effect
78 | Q453E | with no effect

Row | Variant | effect of a mutation on the interaction
79 | Q453A | with no effect
80 | Q453K | with no effect
81 | L458K | with no effect
82 | L458E | with no effect
83 | L458A | with no effect
84 | S473K | with no effect
85 | S473A | with no effect
86 | S473E | with no effect
87 | Q506A | with no effect
88 | L475E | with no effect
89 | L475K | with no effect
90 | L475A | with no effect
91 | H504K | with no effect
92 | H504E | with no effect
93 | H504A | with no effect
94 | L488A | with no effect
95 | L488K | with no effect
96 | L488E | with no effect
97 | M448E | with no effect
98 | M448K | with no effect
99 | M448A | with no effect
100 | R460K | with no effect
101 | R460A | with no effect
102 | R460E | with no effect
103 | P497A | with no effect
104 | P497E | with no effect

Row | Variant | effect of a mutation on the interaction
105 | P497K | with no effect
106 | A464K | with no effect
107 | A464E | with no effect
108 | L468E | with no effect
109 | L468A | with no effect
110 | L468K | with no effect
111 | A482E | with no effect
112 | A482K | with no effect
113 | D455E | with no effect
114 | D455A | with no effect
115 | D455K | with no effect
116 | L505E | disrupting interaction strength
117 | L505K | disrupting interaction strength
118 | L505A | with no effect
119 | L505P | disrupting interaction strength
120 | L503K | disrupting interaction strength
121 | L503E | disrupting interaction strength
122 | L503A | with no effect
123 | G445E | with no effect
124 | G445K | with no effect
125 | G445A | with no effect
126 | T480E | with no effect
127 | T480K | with no effect
128 | T480A | with no effect
129 | A451K | with no effect
130 | A451E | with no effect

Row | Variant | effect of a mutation on the interaction
131 | T481K | with no effect
132 | T481A | with no effect
133 | T481E | with no effect
134 | G496A | with no effect
135 | G496E | with no effect
136 | G496K | with no effect
137 | T498E | with no effect
138 | T498A | with no effect
139 | T498K | with no effect
140 | A447E | with no effect
141 | A447K | with no effect
142 | L461A | with no effect
143 | L461E | with no effect
144 | L461K | with no effect
145 | Q493E | with no effect
146 | Q493K | with no effect
147 | Q493A | with no effect
148 | L456K | with no effect
149 | L456E | with no effect
150 | L456A | with no effect
151 | V491E | with no effect
152 | V491K | with no effect
153 | V491A | with no effect
154 | T446K | with no effect
155 | T446E | with no effect
156 | T446A | with no effect

Row | Variant | effect of a mutation on the interaction
157 | P477K | with no effect
158 | P477E | with no effect
159 | P477A | with no effect
160 | L478A | with no effect
161 | L478E | with no effect
162 | L478K | with no effect
163 | L471F | disrupting interaction strength
164 | L471E | with no effect
165 | L471K | with no effect
166 | L471A | with no effect
167 | A490K | with no effect
168 | A490E | with no effect
169 | A463K | disrupting interaction strength
170 | A463E | disrupting interaction strength
171 | T454K | with no effect
172 | T454E | with no effect
173 | T454A | with no effect
174 | E443K | with no effect
175 | Y457K | with no effect
176 | Y457E | with no effect
177 | Y457A | with no effect
178 | E484A | with no effect
179 | E484K | with no effect
